Substitutions are numbered along the chain they refer to. * marks the point of attachment. αGalNAc = CC(=O)N[C@@H]1[C@@H](O)[C@@H](O)[C@@H](CO)O[C@@H]1*
T1: A-MUC2 (SMILES …)
T1 construct: also called Ac-PT*TTPLK-NH2
T1 peptide: Ac-PT(αGalNAc)TTPLK-NH2

T2: B-MUC2 (SMILES …)
T2 construct: also called Ac-PTT*TPLK-NH2
T2 peptide: Ac-PTT(αGalNAc)TPLK-NH2

T3: C-MUC2 (SMILES …)
T3 construct: also called Ac-PTTT*PLK-NH2
T3 peptide: Ac-PTTT(αGalNAc)PLK-NH2

T4: D-MUC2 (SMILES …)
T4 construct: also called Ac-PT*T*TPLK-NH2
T4 peptide: Ac-PT(αGalNAc)T(αGalNAc)TPLK-NH2

T5: E-MUC2 (SMILES …)
T5 construct: also called Ac-PT*TT*PLK-NH2
T5 peptide: Ac-PT(αGalNAc)TT(αGalNAc)PLK-NH2

T6: F-MUC2 (SMILES …)
T6 construct: also called Ac-PTT*T*PLK-NH2
T6 peptide: Ac-PTT(αGalNAc)T(αGalNAc)PLK-NH2

T7: G-MUC2 (SMILES …)
T7 construct: also called Ac-PT*T*T*PLK-NH2
T7 peptide: Ac-PT(αGalNAc)T(αGalNAc)T(αGalNAc)PLK-NH2

T8: a-Dystroglycan peptide (no Tn)
T8 construct: Unmodified control of the a-Dystroglycan glycopeptide
T8 peptide: Ac-PPTTTTKKP-NH2

T9: MUC5AC (SMILES …)
T9 peptide: H-GTTPSPVPT(αGalNAc)TSTTSAP-OH

T10: EA2 (SMILES …)
T10 construct: also called Ac-PTTDSTT*PAPTTK-NH2
T10 peptide: Ac-PTTDSTT(αGalNAc)PAPTTK-NH2

T11: EA2-R
T11 peptide: Ac-PTTDSTTPAPTTK-NH2

T12: a-Dystroglycan glycopeptide (four Tn) (SMILES …)
T12 construct: also called Ac-PPT*T*T*T*KKP-HN2
T12 peptide: Ac-PPT(αGalNAc)T(αGalNAc)T(αGalNAc)T(αGalNAc)KKP-NH2

T13: MUC1-1 (SMILES …)
T13 construct: also called H2N-TSAPDT*RDAP-NH2
T13 peptide: H-TSAPDT(αGalNAc)RDAP-NH2

T14: MUC1-1R
T14 peptide: H-TSAPDTRDAP-NH2

T15: MUC1-2 (SMILES …)
T15 construct: also called H2N-APGS*T*APP-NH2
T15 peptide: H-APGS(αGalNAc)T(αGalNAc)APP-NH2

T16: MUC1-2R
T16 peptide: H-APGSTAPP-NH2

T17: Peptide-4
T17 construct: also called H2N-KTTT-CONH2
T17 peptide: H-KTTT-NH2

T18: Peptide-5
T18 construct: also called H2N-KTTTG-CONH2
T18 peptide: H-KTTTG-NH2

T19: IgA-Pep02
T19 peptide: H-KPVPSTPPTPSC-OH

T20: IgA-Pep03 (SMILES …)
T20 construct: also called H2N-KPVPS*TPPTPSC-OH
T20 peptide: H-KPVPS(αGalNAc)TPPTPSC-OH

T21: IgA-Pep07
T21 peptide: H-KTPPTPSPSTPC-OH

T22: IgA-Pep08 (SMILES …)
T22 peptide: H-KTPPTPSPST(αGalNAc)PC-OH

T23: IgA-Pep10
T23 peptide: H-KPSPSTPPTPSC-OH

T24: IgA-Pep13 (SMILES …)
T24 construct: also called H2N-KPS*TPPT*PSPSC-OH
T24 peptide: H-KPS(αGalNAc)TPPT(αGalNAc)PSPSC-OH

T25: IgA-Pep16 (SMILES …)
T25 peptide: H-KPSTPPTPS(αGalNAc)PSC-OH

T26: IgA-Pep18 (SMILES …)
T26 peptide: H-KPST(αGalNAc)PPTPSPSC-OH

T27: IgA-Pep05
T27 construct: also called IgA-Pep12; IgA-Pep14
T27 peptide: H-KPSTPPTPSPSC-OH

B1: 2F3 parent antibody (antibody, V domains shown)
VH: QITLRESGGGLVQPGGSLRLSCAASGFTFDSYAMSWVRQAPGKGLEWVSAISGSGDSTYYADSVKGRFSISRDNSKNTLYLQMNSLRAEDTAVYYCAIRREYSGYAPFDYWGQGTLVTVSS
VL: DIVMTQTPSSLSASVGDRVTITCRASQGISSWLAWYQQKPEKAPRSLIYAASSLQSGVPSRFSGSGSGTDFTLTISSLQPEDFATYYCQQYISYPYTFGQGTKLEIK
notes: Only variable domains are used here; V genes were cloned into human IgG1 (or IgG3)/kappa; also called 2F3 Original; original 2F3 parent
B2: 2F3 variant #6 (antibody, IgG1, V domains shown)
VH: B1 VH with I2V, T3Q, R5L, D56A, T118I
VL: B1 VL
notes: Mutant heavy chain in an IgG expression vector, co-expressed with the wild type 2F3 light chain (IgG1, kappa); also called 2F3#6; clone 6
B3: 2F3 variant #17v2 (antibody, IgG1, V domains shown)
VH: B1 VH with D56H, S85N
VL: B1 VL
notes: IgG1, kappa, wild type 2F3 light chain; also called 2F3#17V2; 2F3#17v2

Experiments:
A-MUC2 = target: T1, A-MUC2; experiment: glycopeptide microarray, antibody at 50 ug/mL
Description: (§1) With concentrations adjusted to 100 μM in printing buffer (300 mM sodium phosphates, pH 8.5), 0.33 nL of each solution was spotted using a piezoelectric printer. The microarray was printed in spot replicates of 6. Arrays were interrogated with monoclonal anti-Tn antibodies 2F3 parent, 2F3V variant 6, or 2F3 variant 17-2 and detected with fluorescently labeled secondary antibodies and streptavidin as noted. Scanning and quantification were performed with ProScanArray scanner and ScanArray Express software (Perkin-Elmer). The assay examined a panel of ˜50 Tn glycopeptides and addressed whether spacing, number of Tn modifications, specific residues modified, or sequence context contributed to the specificity of binding by 2F3. […] Ser-Tn near free termini and multiple Ser-Tn in a single peptide increased binding. Using the 2F3 parent antibody (“parent”), Variant 6 and Variant 17, the binding of the antibodies to a panel of different glycoproteins was assayed to determine the preferred Tn context recognized by 2F3 and the 2F3G1 variants. […] Importantly, modification to Thr residues gave rise to little to no binding. […] Furthermore, binding was observed not only to peptides that contained Ser-Tn, but specifically those that were at least 5 amino acids from the attachment point to the solid matrix. Ser-Tn near free termini and multiple Ser-Tn in a single peptide increased binding.
(§2) The antibodies were applied to glycopeptide arrays at a concentration of 5 ug/mL (no data shown form this group) or 50 ug/mL (data shown in bar chart and in the table 9).

B-MUC2 = target: T2, B-MUC2; experiment: glycopeptide microarray, antibody at 50 ug/mL
Description: as §1, §2

C-MUC2 = target: T3, C-MUC2; experiment: glycopeptide microarray, antibody at 50 ug/mL
Description: as §1, §2

D-MUC2 = target: T4, D-MUC2; experiment: glycopeptide microarray, antibody at 50 ug/mL
Description: as §1, §2

E-MUC2 = target: T5, E-MUC2; experiment: glycopeptide microarray, antibody at 50 ug/mL
Description: as §1, §2

F-MUC2 = target: T6, F-MUC2; experiment: glycopeptide microarray, antibody at 50 ug/mL
Description: as §1, §2

G-MUC2 = target: T7, G-MUC2; experiment: glycopeptide microarray, antibody at 50 ug/mL
Description: as §1, §2

[1] = target: T8, a-Dystroglycan peptide (no Tn); experiment: glycopeptide microarray, antibody at 50 ug/mL
Description: as §1, §2

MUC5AC = target: T9, MUC5AC; experiment: glycopeptide microarray, antibody at 50 ug/mL
Description: as §1, §2

EA2 = target: T10, EA2; experiment: glycopeptide microarray, antibody at 50 ug/mL
Description: as §1, §2

EA2-R = target: T11, EA2-R; experiment: glycopeptide microarray, antibody at 50 ug/mL
Description: as §1, §2

[2] = target: T12, a-Dystroglycan glycopeptide (four Tn); experiment: glycopeptide microarray, antibody at 50 ug/mL
Description: as §1, §2

MUC1-1 = target: T13, MUC1-1; experiment: glycopeptide microarray, antibody at 50 ug/mL
Description: as §1, §2

MUC1-1R = target: T14, MUC1-1R; experiment: glycopeptide microarray, antibody at 50 ug/mL
Description: as §1, §2

MUC1-2 = target: T15, MUC1-2; experiment: glycopeptide microarray, antibody at 50 ug/mL
Description: as §1, §2

MUC1-2R = target: T16, MUC1-2R; experiment: glycopeptide microarray, antibody at 50 ug/mL
Description: as §1, §2

Peptide-4 = target: T17, Peptide-4; experiment: glycopeptide microarray, antibody at 50 ug/mL
Description: as §1, §2

Peptide-5 = target: T18, Peptide-5; experiment: glycopeptide microarray, antibody at 50 ug/mL
Description: as §1, §2

IgA-Pep02 = target: T19, IgA-Pep02; experiment: glycopeptide microarray, antibody at 50 ug/mL
Description: as §1, §2

IgA-Pep03 = target: T20, IgA-Pep03; experiment: glycopeptide microarray, antibody at 50 ug/mL
Description: as §1, §2

IgA-Pep07 = target: T21, IgA-Pep07; experiment: glycopeptide microarray, antibody at 50 ug/mL
Description: as §1, §2

IgA-Pep08 = target: T22, IgA-Pep08; experiment: glycopeptide microarray, antibody at 50 ug/mL
Description: as §1, §2

IgA-Pep10 = target: T23, IgA-Pep10; experiment: glycopeptide microarray, antibody at 50 ug/mL
Description: as §1, §2

IgA-Pep13 = target: T24, IgA-Pep13; experiment: glycopeptide microarray, antibody at 50 ug/mL
Description: as §1, §2

IgA-Pep16 = target: T25, IgA-Pep16; experiment: glycopeptide microarray, antibody at 50 ug/mL
Description: as §1, §2

IgA-Pep18 = target: T26, IgA-Pep18; experiment: glycopeptide microarray, antibody at 50 ug/mL
Description: as §1, §2

IgA-Pep05 [3] = target: T27, IgA-Pep05; experiment: glycopeptide microarray, antibody at 50 ug/mL; spot IgA-Pep05
Description: as §1, §2

IgA-Pep05 [4] = target: T27, IgA-Pep05; experiment: glycopeptide microarray, antibody at 50 ug/mL; spot IgA-Pep12
Description: as §1, §2

IgA-Pep05 [5] = target: T27, IgA-Pep05; experiment: glycopeptide microarray, antibody at 50 ug/mL; spot IgA-Pep14
Description: as §1, §2

| Binder | RLU (A-MUC2) | RLU (C-MUC2) | RLU (E-MUC2) | RLU (F-MUC2) | RLU (G-MUC2) | RLU [1] | RLU (MUC5AC) | RLU (EA2) | RLU (EA2-R) | RLU [2] | RLU (MUC1-1) | RLU (MUC1-1R) | RLU (MUC1-2R) | RLU (Peptide-4) | RLU (Peptide-5) | RLU (IgA-Pep02) | RLU (IgA-Pep07) | RLU (IgA-Pep08) | RLU (IgA-Pep10) | RLU (IgA-Pep18) | further results |
| --- | --- | --- | --- | --- | --- | --- | --- | --- | --- | --- | --- | --- | --- | --- | --- | --- | --- | --- | --- | --- | --- |
| B1 | 45 RLU | 9 RLU | 8 RLU | 11 RLU | 10 RLU | 37 RLU | 23 RLU | 11 RLU | 15 RLU | 24 RLU | 11 RLU | 7 RLU | 4 RLU | 7 RLU | 10 RLU | 26 RLU | 20 RLU | 22 RLU | 19 RLU | 16 RLU | RLU (B-MUC2): 19 RLU; RLU (D-MUC2): 12 RLU; RLU (MUC1-2): 33 RLU; RLU (IgA-Pep03): 58 RLU; RLU (IgA-Pep13): 40 RLU; RLU (IgA-Pep16): 115 RLU; RLU (IgA-Pep05 [3]): 28 RLU; RLU (IgA-Pep05 [4]): 20 RLU; RLU (IgA-Pep05 [5]): 43 RLU |
| B2 | 55 RLU | 22 RLU | 27 RLU | 54 RLU | -39 RLU | -4 RLU | -14 RLU | 18 RLU | 45 RLU | 28 RLU | 14 RLU | 7 RLU | 0 RLU | 31 RLU | -6 RLU | 35 RLU | 30 RLU | -6 RLU | -127 RLU | 22 RLU | RLU (B-MUC2): 23 RLU; RLU (D-MUC2): 12 RLU; RLU (MUC1-2): 59 RLU; RLU (IgA-Pep05 [3]): 60 RLU; RLU (IgA-Pep05 [4]): 83 RLU; RLU (IgA-Pep05 [5]): 38 RLU |
| B3 | 65 RLU | 30 RLU | 87 RLU | 70 RLU | 51 RLU | 86 RLU | 87 RLU | 16 RLU | 29 RLU | 51 RLU | 61 RLU | 19 RLU | 6 RLU | 33 RLU | 41 RLU | 75 RLU | 144 RLU | 282 RLU | 125 RLU | 174 RLU | RLU (IgA-Pep05 [3]): 149 RLU; RLU (IgA-Pep05 [4]): 457 RLU; RLU (IgA-Pep05 [5]): 112 RLU |
